Reference: article PMC2864739, “Crystal Structure of the Neutralizing Llama VHH D7 and Its Mode of HIV-1 gp120 Interaction” (PLoS ONE, 2010)
Positions count from the first letter of the chain named.

B1: llama heavy chain antibody fragment VHH D7, wild type (VHH)
VHH: AVQLVESGGGLAQAGGSLRLSCTVSGRTSSSHDMGWFRQAPGKEREFVAAISWSGGTTNYADSVKGRFAISKDNAKNAVSLQMNSLKPEDTAVYYCAAKWRPLRYSDNPSNSDYNYWGQGTQVTVSS
notes: PDB 2xa3 holds D7 with the framework changes Val5Gln, Ala11Val, Ala61Val, Ala68Asp and Ser79Tyr against wild type D7
B2: VHH D7 Lys95→Ser (VHH)
VHH: B1 VHH with K99S
notes: PDB 2xa3 holds D7 with five framework changes) with the stated CDR3 mutation; Chothia numbering
B3: VHH D7 Asp100C→Ala (VHH)
VHH: B1 VHH with D107A
notes: PDB 2xa3 holds D7 with five framework changes) with the stated CDR3 mutation; Chothia numbering (100C is an insertion position)
B4: VHH D7 Trp96→Ala (VHH)
VHH: B1 VHH with W100A
notes: as for B2
B5: VHH D7 Tyr100A→Ala (VHH)
VHH: B1 VHH with Y105A
notes: PDB 2xa3 holds D7 with five framework changes) with the stated CDR3 mutation; Chothia numbering (100A is an insertion position)
B6: VHH D7 double mutant Asn101→Tyr/Tyr102→Asp (VHH)
VHH: B1 VHH with N115Y, Y116D
notes: PDB 2xa3 holds D7 with five framework changes) with the stated CDR3 mutations; Chothia numbering; also called double mutant Asn^101Tyr^102
B7: VHH D7 Leu99→Ala (VHH)
VHH: B1 VHH with L103A
notes: as for B2
B8: VHH D7 Asn100D→Ala (VHH)
VHH: B1 VHH with N108A
notes: PDB 2xa3 holds D7 with five framework changes) with the stated CDR3 mutation; Chothia numbering (100D is an insertion position)

Target: T1, HIV-1 envelope glycoprotein gp120 (IIIB) (HIV-1 IIIB (HXB2 clone entry), UniProt P04578)
Assay: cell-based or functional assay
Conditions: not given

| Binder | IC50 of neutralisation of HIV-1 IIIB in TZM-bl cells, Average [µg/mL] | IC50 of neutralisation of HIV-1 IIIB in TZM-bl cells, Exp1 [µg/mL] | IC50 of neutralisation of HIV-1 IIIB in TZM-bl cells, Exp2 [µg/mL] |
| --- | --- | --- | --- |
| B1 | 0.054 | 0.066 | 0.041 |
| B2 | 3 | 3.43 | 2.64 |
| B3 | 0.027 | 0.4 | 0.014 |
| B4 | 2.6 | 2.72 | 2.43 |
| B5 | 0.023 | 0.028 | 0.018 |
| B6 | 0.011 | 0.017 | 0.005 |
| B7 | 0.69 | 0.817 | 0.56 |

Target: T1, HIV-1 envelope glycoprotein gp120 (IIIB)
Assay: SPR; gp120 (IIIB) coupled covalently to a CM5 chip; D7 or D7 mutants at 25 and 100 nM flowed over; Biacore X; 10 mM HEPES pH 7.5, 100 mM NaCl, 0.05% P20; 30 µl/min; association 3 min, dissociation 15 min; simultaneous fit of association and dissociation
Conditions: both partners purified

| Binder | Kd [nM] | koff [s⁻¹] | kon [M⁻¹ s⁻¹] |
| --- | --- | --- | --- |
| B1 | 2.91 ± 0.87 | 0.000551 | 155000 |
| B2 | 377 ± 276 | 0.00236 | 13000 |
| B3 | 0.84 ± 0.12 | 0.000199 | 236000 |
| B4 | 27.9 ± 20.5 | 0.00313 | 146000 |
| B5 | 1.55 ± 0.07 | 0.000359 | 233000 |
| B8 | 0.51 ± 0.02 | 0.000128 | 252000 |
| B6 | 0.18 ± 0.15 | 3.3e-05 | 187000 |
| B7 | 69.9 ± 14.2 | 0.005 | 14000 |
